From the supplement of paper PMC12042874 come the findings set out here.

± gives the uncertainty stated by the source.

The data set in a line: amyloid nucleation score (Sup35N fusion, yeast selection) (log enrichment); library NNK3; higher = more nucleation; inactive = no reads after selection. The method, boiled down: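 Peptides of 20 random codons fused to Sup35N were expressed in psi-negative yeast, induced 24 hours with 100 μM copper sulfate, then grown 7 days at 30°C on medium lacking adenine and uracil. Input and output plasmid inserts were Illumina-sequenced. Nucleation score is the DiMSum log enrichment of output over input reads, centred on the mode score of non-aggregating sequences, excluding sequences with under 100 input reads. Random libraries had three technical output replicates.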
For the substance NSTDRMTASS, the amyloid nucleation score result is “inactive”.

Turning to NSYFLSRTLLSTSGRRTCRM, the amyloid nucleation score result was “inactive”.

Take NSYGPRKSSGRVAPF: the amyloid nucleation score result was “inactive”.

Take NSYQY: the amyloid nucleation score entry is “inactive”.

Consider NTFVDGKSRYYSYLRIVQIL, for which the amyloid nucleation score result was “inactive”.

Consider NTGYVVLHKDFHSLASSTKV, for which the amyloid nucleation score entry was “inactive”.

Consider NTHKQWVRTLRWVLVSYNCC, for which the amyloid nucleation score entry is “inactive”.

In the case of NTLDDDFRISPDATVYSVYW, the amyloid nucleation score result is “inactive”.

In the case of NTMMA, the amyloid nucleation score result was “inactive”.

As to NTNRLFNSLRTKLGFCFYSF, the amyloid nucleation score result is “inactive”.

Take NVAAFGVAMPGMSV: the amyloid nucleation score result is “inactive”.

Take NVALRAGSREG: the amyloid nucleation score entry was “inactive”.

As for NVEMLFNNSHHSTDEDAWYD, the amyloid nucleation score entry is “inactive”.

Turning to NVFFIRNNQTTGRLKFWCQV, the amyloid nucleation score was found to be 0.958 ± 0.12.

For the substance NVFLRNLA, the amyloid nucleation score result is “inactive”.

As to NVLALECVRDWT, the amyloid nucleation score entry was “inactive”.

With NVLFLVNY, the amyloid nucleation score came out at 2.42 ± 0.067.

Take NVLLCINTRYR: the amyloid nucleation score is 1.35 ± 0.077.

Consider NVRTLNSLDDLGVSFSSACT, for which the amyloid nucleation score entry is “inactive”.

In the case of NVSPIGQISVNYGRMDCSEG, the amyloid nucleation score result is “inactive”.

With NVVFV, the amyloid nucleation score entry was “inactive”.

As to NWCLVYRPVKL, the amyloid nucleation score came to 1.54 ± 0.1.

As to NWENILGDSYLCVKWSL, the amyloid nucleation score entry is “inactive”.

For NWFPGTRGRLLQVTLGYLVD, the amyloid nucleation score entry was “inactive”.

On to NWMGTGGYDMDDFFE, for which the amyloid nucleation score entry is “inactive”.

Turning to NWQYLNG, the amyloid nucleation score entry is “inactive”.

In the case of NWRLCFNRGRCRYMIMLQKF, the amyloid nucleation score result was “inactive”.

In the case of NWSSH, the amyloid nucleation score entry is “inactive”.

NYDERCV showed an amyloid nucleation score of -0.363 ± 0.98.

Turning to NYDRYCANIMYTAMCIRLLW, the amyloid nucleation score entry is “inactive”.

In turn, NYFQFCCGLETVNNYYRKCE returned an amyloid nucleation score of 1.76 ± 0.066.

For NYGLLQFISIWSNILVHSNV, the amyloid nucleation score entry was “inactive”.

For the substance NYVLRTSVVL, the amyloid nucleation score entry is “inactive”.

For NYWYITKERGSNLVWSNGDE, the amyloid nucleation score result is “inactive”.

NYYNLYCLTVLQKRLQAGMQ: the amyloid nucleation score entry is “inactive”.

As for NYYNQT, the amyloid nucleation score result is “inactive”.

With NYYYMYGKCSI, the amyloid nucleation score worked out at 2.28 ± 0.082.

PAYLHYSIFWQNVFSNVLIM showed an amyloid nucleation score of 1.1 ± 0.14.

In the case of PCFEFSTSVRVFSDAKGLSV, the amyloid nucleation score worked out at 0.234 ± 0.25.

In the case of PCGVEMLWFKG, the amyloid nucleation score result was “inactive”.

With PCYCSFVSRSYYCKDYVRNS, the amyloid nucleation score result was “inactive”.

For PDLTKNSWYLYSYRLV, the amyloid nucleation score result is “inactive”.

Consider PEASLLVPMVSSYPLHFA, for which the amyloid nucleation score entry was “inactive”.

Take PEAVAAKRPSLQYPFASMTS: the amyloid nucleation score result is “inactive”.

As to PEAVTCCNQKMTPVFIIGHP, the amyloid nucleation score result is “inactive”.

In the case of PEFYA, the amyloid nucleation score entry is “inactive”.

As for PELLEHYMSHF, the amyloid nucleation score result is “inactive”.

Substance PESFKGTQCVKFFYNCLLFK returned an amyloid nucleation score of 1.2 ± 0.086.

As to PESGAPNPSGYCLAHH, the amyloid nucleation score result was “inactive”.

Consider PEVCEPLLGFLCFCPVNSVP, for which the amyloid nucleation score result is “inactive”.

With PFCLPRGASCRAGCGEHIKG, the amyloid nucleation score entry is “inactive”.

In the case of PFFRASRLWLSLVRMRTLSV, the amyloid nucleation score result was “inactive”.

As for PFGSSTRFIHVFYGAWGHSK, the amyloid nucleation score result was “inactive”.

Consider PFGVFHSSATTKRHFYMVGV, for which the amyloid nucleation score entry was “inactive”.

On to PFHSVYVDDDAWNGVCLPAV, for which the amyloid nucleation score result is “inactive”.

Take PFMCGRAIRLSFREFTRLKN: the amyloid nucleation score entry was “inactive”.

With PFSSFWVTRTLIALWYSLRT, the amyloid nucleation score result is “inactive”.

PFWKLKQKWVR showed an amyloid nucleation score of -1.1 ± 1.9.

For the substance PGEHCWRRFLT, the amyloid nucleation score result is “inactive”.

Turning to PGFINFRGVTGKSLTYSILI, the amyloid nucleation score entry was “inactive”.

For PGLLLNRMLDARFM, the amyloid nucleation score result is “inactive”.

Take PGWLPQGMDNNSLTAVCVTI: the amyloid nucleation score result is “inactive”.

PIIFNFLRIM had an amyloid nucleation score of 1.7 ± 0.058.

With PILELGGRSFTTWRC, the amyloid nucleation score result is “inactive”.

With PILMISCAAGKELQLKVLWN, the amyloid nucleation score result was “inactive”.

Take PITMLE: the amyloid nucleation score result is “inactive”.

Consider PIVRRKSPPRHYENELRGYS, for which the amyloid nucleation score entry was “inactive”.

Turning to PKFAHSEHVVNSNLFYCVEA, the amyloid nucleation score entry was “inactive”.

Consider PKFFEAPQLQLFDAYSSMDF, for which the amyloid nucleation score entry is “inactive”.

For the substance PLCFLFNQFSYGA, the amyloid nucleation score entry is “inactive”.

With PLDVNGYMNVTSGRRMCARR, the amyloid nucleation score result was “inactive”.

PLESSWSK: the amyloid nucleation score entry is “inactive”.

PLGLAILFSSPSTFLYFNFD: the amyloid nucleation score result is “inactive”.

On to PLIYSTLNCKRM, for which the amyloid nucleation score entry is “inactive”.

Consider PLLLHVST, for which the amyloid nucleation score entry was “inactive”.

Consider PLPAYCGYVLIGVHGYPFDI, for which the amyloid nucleation score result is “inactive”.

In the case of PLPDRGSFFTVSNLNEWSAV, the amyloid nucleation score result was “inactive”.

PLPLCKVM returned an amyloid nucleation score of -0.039 ± 0.66.

With PLSSSLGWVCL, the amyloid nucleation score result was “inactive”.

On to PLTPD, for which the amyloid nucleation score entry was “inactive”.

Regarding PMGNRAWFPFLYEDQKPRIS, the amyloid nucleation score entry is “inactive”.

In the case of PMMVWFSNFLYVASMGPDSF, the amyloid nucleation score entry is “inactive”.

PMSVRRTVFCPSTSM: the amyloid nucleation score result is “inactive”.

Take PMVKPSNLCYSSHCSMGTRG: the amyloid nucleation score result was “inactive”.

For PMYPGIVGSRAIMQRLVGCC, the amyloid nucleation score entry is “inactive”.

Turning to PNICGLGYYRLWSMLGITCW, the amyloid nucleation score entry is “inactive”.

For the substance PNISGGDAIEGLFFFRVGRE, the amyloid nucleation score came to 1.04 ± 0.14.

For the substance PNRWLSRLALRIFLGHCEPV, the amyloid nucleation score result was “inactive”.

Turning to PNSLRRCVSRLVPRGLPRKR, the amyloid nucleation score entry is “inactive”.

Turning to PPSISSPFALRVFTFVLRY, the amyloid nucleation score entry was “inactive”.

In the case of PQMQAISSHVCLWG, the amyloid nucleation score result is “inactive”.

As to PRCVC, the amyloid nucleation score entry was “inactive”.

PRDYMINNLLVFQSRG: the amyloid nucleation score result is “inactive”.

For the substance PRLKFASYVMEMPLKFGEGI, the amyloid nucleation score result was “inactive”.

Regarding PRLLRVSAIKSGRCPKGKKS, the amyloid nucleation score result is “inactive”.

Take PRLTFSVVVRFCIHTLCLLK: the amyloid nucleation score entry was “inactive”.

As to PRNFVANPVELNKGKDFIPS, the amyloid nucleation score entry is “inactive”.

Substance PRRSERYFCFF yielded an amyloid nucleation score of 0.443 ± 0.23.

As for PRRTNRVNKSISSVLSLRIG, the amyloid nucleation score amounted to 0.517 ± 0.57.

Regarding PRTCMATSGPSGGHKSLFGF, the amyloid nucleation score entry is “inactive”.

Consider PSGVTSCLKEWDSRDHGHRH, for which the amyloid nucleation score entry is “inactive”.

Turning to PSLRLQTTDILHKNSNY, the amyloid nucleation score entry is “inactive”.

Take PSSLKCKLAI: the amyloid nucleation score result is “inactive”.

In the case of PSSLKYSKRVLSVSIHWERL, the amyloid nucleation score entry is “inactive”.

Substance PSVTLQHSGIATWSILDRTL registered an amyloid nucleation score of 0.316 ± 0.26.

Regarding PTAFCNSSQYV, the amyloid nucleation score entry was “inactive”.

On to PTAKRM, for which the amyloid nucleation score result was “inactive”.

With PTGGKKVGIASTFSLSVGTV, the amyloid nucleation score is -0.08 ± 0.27.

Consider PTGSFMLLET, for which the amyloid nucleation score result is “inactive”.

As for PTLCNRGLACDEHSHR, the amyloid nucleation score entry is “inactive”.

Regarding PTRNYCLLVKDY, the amyloid nucleation score entry was “inactive”.

As to PTSFLVYRMKRWFRASMSSR, the amyloid nucleation score entry is “inactive”.

Take PTSFYPVQRPPRFCAGHFRS: the amyloid nucleation score result was “inactive”.

For the substance PTTCSNFSAYWNVCDPHNIS, the amyloid nucleation score result is “inactive”.

For PVEPI, the amyloid nucleation score result was “inactive”.

With PVFQLNNFTYMRVPCLRGLN, the amyloid nucleation score entry is “inactive”.

For PVHSMASQLPYNNNTTKCLV, the amyloid nucleation score entry is “inactive”.

PVLSYMRMSI: the amyloid nucleation score result is “inactive”.

For PVPLAMYFYVALIYFDWW, the amyloid nucleation score entry was “inactive”.

For the substance PVQACRCKSH, the amyloid nucleation score entry is “inactive”.

Regarding PVVTVHAWHRFNMHL, the amyloid nucleation score result is “inactive”.

For the substance PVYERPRCQNFLGCYWSCAQ, the amyloid nucleation score entry is “inactive”.

As for PWCLNWVITDDCRFYCGLRV, the amyloid nucleation score entry was “inactive”.

In the case of PWGPW, the amyloid nucleation score result is “inactive”.

As for PWIGVNINSSVLVMVFGGGM, the amyloid nucleation score was 1.97 ± 0.079.

In the case of PWMHLYRHAMFISAHLRYSC, the amyloid nucleation score entry is “inactive”.

Consider PWRLIAALACVYTWPLGLRG, for which the amyloid nucleation score entry is “inactive”.

For the substance PYAPVWKRGRNYFTNSFLYM, the amyloid nucleation score entry is “inactive”.

On to PYFTDAFVNEMDMQCH, for which the amyloid nucleation score result was “inactive”.

QANFYPN: the amyloid nucleation score result is “inactive”.

On to QARKDDDKAQNKCSR, for which the amyloid nucleation score entry is “inactive”.

Take QAYAS: the amyloid nucleation score was -0.099 ± 0.96.

In the case of QCEAGSGIIAVLHY, the amyloid nucleation score entry was “inactive”.
